According to patent US20140120082A1:

Legend:
8.3 TcR = test: tetramer staining of 8.3 TcR-transgenic NOD CD8+ T cells, flow cytometry
human NKG2D (human) [1] = target: human NKG2D (human) (UniProt P26718); test: cell-based or functional assay
human NKG2D (human) [2] = target: human NKG2D (human) (UniProt P26718); test: flow cytometry on NKL cells stained on ice with biotinylated mAb, APC-streptavidin before culture (0 h)
human NKG2D (human) [3] = target: human NKG2D (human) (UniProt P26718); test: flow cytometry on NKL cells stained on ice with biotinylated mAb, APC-streptavidin after 16 h of culture at 37° C

Chain of UniProt P26718 (P26718 whole entry T72A): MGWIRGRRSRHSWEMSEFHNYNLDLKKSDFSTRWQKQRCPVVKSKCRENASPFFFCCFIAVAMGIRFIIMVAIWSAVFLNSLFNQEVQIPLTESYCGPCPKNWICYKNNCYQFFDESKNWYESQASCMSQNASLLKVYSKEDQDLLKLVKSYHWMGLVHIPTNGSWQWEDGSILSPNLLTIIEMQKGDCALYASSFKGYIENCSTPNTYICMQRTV

Substance | percent of donor CD8+ T cells tetramer positive (8.3 TcR) [%] | decrease in expression of NKG2D on the cell surface (human NKG2D (human) [1]) [%] | mean fluorescence intensity (arbitrary units) (human NKG2D (human) [2]) | mean fluorescence intensity (arbitrary units) (human NKG2D (human) [3])
NRP-V7/H-2K^d tetramer (from UniProt P01902 22-305) (peptide-MHC) | > 90 |  |  | 
mouse anti-human NKG2D mAb (R&D Systems clone 149810) (antibody) |  | 67 | 186 | 61
